Experimental data: US20230346961A1, “GLP-1 AND GIP RECEPTOR CO-AGONISTS” (Novo Nordisk A/S, priority 2020, published 2023)
Starred links: 1 amine or outer side, 2 acyl side, 3 side chain; linkers in the order of their positions; H or OH if unused. Non-standard residues stand in square brackets, D forms with d. Groups on a side chain read outwards from the residue. No end group written: not given here. *: point of attachment. C18 diacid = O=C(O)CCCCCCCCCCCCCCCCC(=O)*; γGlu = O=C(O)[C@H](CCC(=O)[*:2])N[*:1]; εLys = N[C@@H](CCCCN[*:1])C(=O)[*:2]; Aib = CC(C)(N)C(=O)O

T1: mouse glucose-dependent insulinotropic polypeptide receptor (mouse, UniProt Q0P543 19-460)
T1 sequence (looked up): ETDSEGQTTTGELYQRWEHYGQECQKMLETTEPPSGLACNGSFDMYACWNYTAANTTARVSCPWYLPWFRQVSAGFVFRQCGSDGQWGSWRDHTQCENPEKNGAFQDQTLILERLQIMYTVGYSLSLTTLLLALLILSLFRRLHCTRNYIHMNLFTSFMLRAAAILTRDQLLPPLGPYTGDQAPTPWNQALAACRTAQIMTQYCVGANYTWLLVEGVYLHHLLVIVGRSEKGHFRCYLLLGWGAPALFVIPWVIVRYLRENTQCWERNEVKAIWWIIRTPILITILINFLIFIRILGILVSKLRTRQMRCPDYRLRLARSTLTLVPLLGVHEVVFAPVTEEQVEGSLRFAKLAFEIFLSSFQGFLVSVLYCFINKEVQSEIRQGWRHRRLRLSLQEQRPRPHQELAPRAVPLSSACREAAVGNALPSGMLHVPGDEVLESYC

T2: mouse glucagon-like peptide 1 receptor (mouse, UniProt O35659 22-463)
T2 sequence (looked up): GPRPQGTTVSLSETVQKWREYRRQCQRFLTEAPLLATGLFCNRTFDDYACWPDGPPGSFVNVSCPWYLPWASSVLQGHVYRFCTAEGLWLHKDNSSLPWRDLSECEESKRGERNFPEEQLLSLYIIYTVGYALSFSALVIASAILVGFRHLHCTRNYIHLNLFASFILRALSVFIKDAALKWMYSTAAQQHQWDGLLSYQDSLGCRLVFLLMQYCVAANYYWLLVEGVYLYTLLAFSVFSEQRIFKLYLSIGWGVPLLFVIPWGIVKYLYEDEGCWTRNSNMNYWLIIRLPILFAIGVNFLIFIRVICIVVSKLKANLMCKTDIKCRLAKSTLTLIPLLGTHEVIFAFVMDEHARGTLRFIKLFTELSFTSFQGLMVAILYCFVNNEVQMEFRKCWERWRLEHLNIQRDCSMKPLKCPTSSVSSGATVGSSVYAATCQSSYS

T3: human glucose-dependent insulinotropic polypeptide receptor (human, UniProt P48546 22-466)
T3 sequence (looked up): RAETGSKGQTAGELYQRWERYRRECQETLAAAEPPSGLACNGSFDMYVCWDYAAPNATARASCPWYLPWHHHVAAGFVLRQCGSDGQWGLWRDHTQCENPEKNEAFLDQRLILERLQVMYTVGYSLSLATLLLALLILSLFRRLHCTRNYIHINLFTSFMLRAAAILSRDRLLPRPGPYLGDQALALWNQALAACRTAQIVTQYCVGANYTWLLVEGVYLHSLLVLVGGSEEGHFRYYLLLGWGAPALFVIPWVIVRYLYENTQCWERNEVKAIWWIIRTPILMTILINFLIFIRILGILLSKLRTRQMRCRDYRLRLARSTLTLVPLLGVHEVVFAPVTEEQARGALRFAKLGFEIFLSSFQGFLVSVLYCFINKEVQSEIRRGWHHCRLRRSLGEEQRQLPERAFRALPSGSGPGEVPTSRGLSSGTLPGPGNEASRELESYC


How the values were obtained:
Test in all cases: cell-based or functional assay
human glucagon receptor = human glucagon receptor (human, UniProt P47871 26-477)
[1] = molecular target: T1, mouse glucose-dependent insulinotropic …
[2] = molecular target: T2, mouse glucagon-like peptide 1 receptor
[3] = molecular target: T3, human glucose-dependent insulinotropic …
[4] = molecular target: human glucagon-like peptide 1 receptor (human, UniProt P43220 24-463)

Row | Binder | hGcgR, CRE Luc EC50 (human glucagon receptor) [nM] | mGIPR, CRE Luc EC50 [1] [nM] | mGLP-1R, CRE Luc EC50 [2] [nM] | hGIPR, CRE Luc 0% HSA EC50 [3] [nM] | hGIPR, CRE Luc 1% HSA EC50 [3] [nM] | hGLP-1R, CRE Luc 0% HSA EC50 [4] [nM] | hGLP-1R, CRE Luc 1% HSA EC50 [4] [nM]
1 | Y[Aib]EGTFTSDYSIYLDKQAA[Aib]K([εLys-εLys-γGlu-C18 diacid])FVNWLLAGGPSSGAPPPS-NH2 (N-terminus assumed; SMILES CC[C@H](C)[C@H](NC(=O)[C@H](CO)NC(=O)[C@H](Cc1ccc(O)cc1)NC(=O)[C@H](CC(=O)O)NC(=O)[C@H](CO)NC(=O)[C@@H](NC(=O)[C@H](Cc1ccccc1)NC(=O)[C@@H](NC(=O)CNC(=O)[C@H](CCC(=O)O)NC(=O)C(C)(C)NC(=O)[C@@H](N)Cc1ccc(O)cc1)[C@@H](C)O)[C@@H](C)O)C(=O)N[C@@H](Cc1ccc(O)cc1)C(=O)N[C@@H](CC(C)C)C(=O)N[C@@H](CC(=O)O)C(=O)N[C@@H](CCCCN)C(=O)N[C@@H](CCC(N)=O)C(=O)N[C@@H](C)C(=O)N[C@@H](C)C(=O)NC(C)(C)C(=O)N[C@@H](CCCCNC(=O)[C@@H](N)CCCCNC(=O)[C@@H](N)CCCCNC(=O)CC[C@H](NC(=O)CCCCCCCCCCCCCCCCC(=O)O)C(=O)O)C(=O)N[C@@H](Cc1ccccc1)C(=O)N[C@H](C(=O)N[C@@H](CC(N)=O)C(=O)N[C@@H](Cc1c[nH]c2ccccc12)C(=O)N[C@@H](CC(C)C)C(=O)N[C@@H](CC(C)C)C(=O)N[C@@H](C)C(=O)NCC(=O)NCC(=O)N1CCC[C@H]1C(=O)N[C@@H](CO)C(=O)N[C@@H](CO)C(=O)NCC(=O)N[C@@H](C)C(=O)N1CCC[C@H]1C(=O)N1CCC[C@H]1C(=O)N1CCC[C@H]1C(=O)N[C@@H](CO)C(N)=O)C(C)C) [Compound #9] | > 10 | 0.068 | 0.0025 | 0.0116 | 0.135 | 0.0067 | 0.11
2 | Y[Aib]EGTFTSDYSIYLDKQAA[Aib]K([γGlu-γGlu-γGlu-C18 diacid])FVNWLLAGGPSSGAPPPS-NH2 (N-terminus assumed; SMILES CC[C@H](C)[C@H](NC(=O)[C@H](CO)NC(=O)[C@H](Cc1ccc(O)cc1)NC(=O)[C@H](CC(=O)O)NC(=O)[C@H](CO)NC(=O)[C@@H](NC(=O)[C@H](Cc1ccccc1)NC(=O)[C@@H](NC(=O)CNC(=O)[C@H](CCC(=O)O)NC(=O)C(C)(C)NC(=O)[C@@H](N)Cc1ccc(O)cc1)[C@@H](C)O)[C@@H](C)O)C(=O)N[C@@H](Cc1ccc(O)cc1)C(=O)N[C@@H](CC(C)C)C(=O)N[C@@H](CC(=O)O)C(=O)N[C@@H](CCCCN)C(=O)N[C@@H](CCC(N)=O)C(=O)N[C@@H](C)C(=O)N[C@@H](C)C(=O)NC(C)(C)C(=O)N[C@@H](CCCCNC(=O)CC[C@H](NC(=O)CC[C@H](NC(=O)CC[C@H](NC(=O)CCCCCCCCCCCCCCCCC(=O)O)C(=O)O)C(=O)O)C(=O)O)C(=O)N[C@@H](Cc1ccccc1)C(=O)N[C@H](C(=O)N[C@@H](CC(N)=O)C(=O)N[C@@H](Cc1c[nH]c2ccccc12)C(=O)N[C@@H](CC(C)C)C(=O)N[C@@H](CC(C)C)C(=O)N[C@@H](C)C(=O)NCC(=O)NCC(=O)N1CCC[C@H]1C(=O)N[C@@H](CO)C(=O)N[C@@H](CO)C(=O)NCC(=O)N[C@@H](C)C(=O)N1CCC[C@H]1C(=O)N1CCC[C@H]1C(=O)N1CCC[C@H]1C(=O)N[C@@H](CO)C(N)=O)C(C)C) [Compound #6] |  | 1.27 | 0.0023 | 0.0081 | 0.101 | 0.0059 | 0.244
3 | Ac-[dY]AEGTFTSDYSIYLDKQAA[Aib]K([εLys-εLys-γGlu-C18 diacid])FVNWLLAGGPSSGAPPPS-NH2 (SMILES CC[C@H](C)[C@H](NC(=O)[C@H](CO)NC(=O)[C@H](Cc1ccc(O)cc1)NC(=O)[C@H](CC(=O)O)NC(=O)[C@H](CO)NC(=O)[C@@H](NC(=O)[C@H](Cc1ccccc1)NC(=O)[C@@H](NC(=O)CNC(=O)[C@H](CCC(=O)O)NC(=O)[C@H](C)NC(=O)[C@@H](Cc1ccc(O)cc1)NC(C)=O)[C@@H](C)O)[C@@H](C)O)C(=O)N[C@@H](Cc1ccc(O)cc1)C(=O)N[C@@H](CC(C)C)C(=O)N[C@@H](CC(=O)O)C(=O)N[C@@H](CCCCN)C(=O)N[C@@H](CCC(N)=O)C(=O)N[C@@H](C)C(=O)N[C@@H](C)C(=O)NC(C)(C)C(=O)N[C@@H](CCCCNC(=O)[C@@H](N)CCCCNC(=O)[C@@H](N)CCCCNC(=O)CC[C@H](NC(=O)CCCCCCCCCCCCCCCCC(=O)O)C(=O)O)C(=O)N[C@@H](Cc1ccccc1)C(=O)N[C@H](C(=O)N[C@@H](CC(N)=O)C(=O)N[C@@H](Cc1c[nH]c2ccccc12)C(=O)N[C@@H](CC(C)C)C(=O)N[C@@H](CC(C)C)C(=O)N[C@@H](C)C(=O)NCC(=O)NCC(=O)N1CCC[C@H]1C(=O)N[C@@H](CO)C(=O)N[C@@H](CO)C(=O)NCC(=O)N[C@@H](C)C(=O)N1CCC[C@H]1C(=O)N1CCC[C@H]1C(=O)N1CCC[C@H]1C(=O)N[C@@H](CO)C(N)=O)C(C)C) [Compound #8] |  | 0.0233 | 0.017 | 0.0047 | 0.0341 | 0.0299 | 0.699
